The source of these data is the supplement of paper PMC9112550, “Optimization of the antimicrobial peptide Bac7 by deep mutational scanning” (BMC Biology, 2022).
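Note: peptides expressed intracellularly from a pBAD plasmid library in pooled LB shake-flask culture, induced with 0.3% L-arabinose, DNA abundance read by NGS, three biological replicates, DESeq2 with apeglm shrinkage.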

In this series the test system is Escherichia coli TOP10. The experiment in a line: shrunken log2 fold change of peptide-encoding DNA abundance (4.5 h post-induction vs induction); higher = less antimicrobial activity (less host growth inhibition). Particulars: time post-induction: 4.5 h; library: site-saturation at positions 5, 18, 19, 20.
Regarding RRIRERPPRLPRPRPRPKKIPRP, the “shrunken log2 fold change” value was -0.515.
Take RRIRQRPPRLPRPRPRPMYWPRP: the “shrunken log2 fold change” value was 0.0971.
Take RRIRPRPPRLPRPRPRPSNMPRP: the “shrunken log2 fold change” value was -0.884.
RRIRVRPPRLPRPRPRPLRIPRP: the “shrunken log2 fold change” value was determined as 0.0616.
For RRIRPRPPRLPRPRPRPAQSPRP the value was 0.448; for RRIRSRPPRLPRPRPRPSVHPRP, -0.352.
In the case of RRIRRRPPRLPRPRPRPGLYPRP, the “shrunken log2 fold change” value was 0.305.
In the case of RRIRCRPPRLPRPRPRPNCTPRP it was -0.322; in that of RRIRRRPPRLPRPRPRPQMNPRP, -0.107.
For RRIRPRPPRLPRPRPRPPTMPRP the value was 0.223; for RRIRGRPPRLPRPRPRPGMFPRP, 0.474; for RRIRVRPPRLPRPRPRPLKMPRP, -0.561.
In the case of RRIRFRPPRLPRPRPRPYKFPRP it was -0.228.
With RRIRERPPRLPRPRPRPFLAPRP, the “shrunken log2 fold change” value is 0.0854.
Turning to RRIRVRPPRLPRPRPRPHGSPRP, the “shrunken log2 fold change” value is -0.156.
In the case of RRIRARPPRLPRPRPRPLLFPRP it was 0.212.
In the case of RRIRVRPPRLPRPRPRPAHGPRP it was 0.0221; in that of RRIRWRPPRLPRPRPRPCINPRP, -0.374.
In the case of RRIRQRPPRLPRPRPRPYLCPRP it was -0.00822.
Consider RRIRQRPPRLPRPRPRPSSDPRP, for which the “shrunken log2 fold change” value is -0.609.
Regarding RRIRERPPRLPRPRPRPIGIPRP, the “shrunken log2 fold change” value was -0.123.
For RRIRDRPPRLPRPRPRPGPAPRP, the “shrunken log2 fold change” value came out at 0.608.
Take RRIRRRPPRLPRPRPRPEWCPRP: the “shrunken log2 fold change” value came out at 0.17.
In the case of RRIRCRPPRLPRPRPRPKHKPRP it was -0.164; in that of RRIRKRPPRLPRPRPRPAMQPRP, 0.115; in that of RRIRGRPPRLPRPRPRPWYQPRP, 0.0417.
Turning to RRIRRRPPRLPRPRPRPRISPRP, the “shrunken log2 fold change” value came out at 0.482.
For RRIRLRPPRLPRPRPRPGGVPRP the value was 0.0323.
In the case of RRIRTRPPRLPRPRPRPVNYPRP it was 0.0177; in that of RRIRFRPPRLPRPRPRPDQHPRP, -0.34; in that of RRIRQRPPRLPRPRPRPEFGPRP, -0.0374.
In the case of RRIRRRPPRLPRPRPRPILGPRP it was 0.0385; in that of RRIRWRPPRLPRPRPRPKDQPRP, 0.508.
RRIRMRPPRLPRPRPRPMTNPRP: the “shrunken log2 fold change” value turned out to be 0.165.
As for RRIRLRPPRLPRPRPRPCKSPRP, the “shrunken log2 fold change” value was -0.264.
With RRIRKRPPRLPRPRPRPVWTPRP, the “shrunken log2 fold change” value turned out to be 0.485.
On to RRIRIRPPRLPRPRPRPRELPRP, for which the “shrunken log2 fold change” value is -0.019.
Take RRIRIRPPRLPRPRPRPRCRPRP: the “shrunken log2 fold change” value was -0.164.
As to RRIRFRPPRLPRPRPRPPATPRP, the “shrunken log2 fold change” value worked out at 0.562.
In the case of RRIRLRPPRLPRPRPRPMRIPRP it was 0.269.
Take RRIRARPPRLPRPRPRPLMNPRP: the “shrunken log2 fold change” value was -0.178.
Take RRIRTRPPRLPRPRPRPKTHPRP: the “shrunken log2 fold change” value was 0.29.
As to RRIRKRPPRLPRPRPRPIYWPRP, the “shrunken log2 fold change” value is 0.165.
Consider RRIRTRPPRLPRPRPRPVGFPRP, for which the “shrunken log2 fold change” value was -0.225.
In the case of RRIRLRPPRLPRPRPRPNWYPRP it was -0.771; in that of RRIRIRPPRLPRPRPRPEREPRP, 0.0556; in that of RRIRIRPPRLPRPRPRPRFRPRP, 0.0756.
In the case of RRIRMRPPRLPRPRPRPPLTPRP it was 0.843; in that of RRIRVRPPRLPRPRPRPESGPRP, 0.177; in that of RRIRPRPPRLPRPRPRPVGEPRP, 0.415.
Turning to RRIRWRPPRLPRPRPRPWYEPRP, the “shrunken log2 fold change” value stood at 0.0012.
Regarding RRIRQRPPRLPRPRPRPWKWPRP, the “shrunken log2 fold change” value was -0.299.
For RRIRSRPPRLPRPRPRPLMKPRP the value was 0.0556.
In the case of RRIRMRPPRLPRPRPRPVKAPRP it was -0.0481; in that of RRIRGRPPRLPRPRPRPAQYPRP, 0.233; in that of RRIRLRPPRLPRPRPRPCAPPRP, 0.00325.
Take RRIRPRPPRLPRPRPRPHWQPRP: the “shrunken log2 fold change” value amounted to 0.358.
Take RRIRCRPPRLPRPRPRPTALPRP: the “shrunken log2 fold change” value turned out to be 0.216.
RRIRYRPPRLPRPRPRPVSNPRP: the “shrunken log2 fold change” value is -1.07.
For the sequence RRIRARPPRLPRPRPRPWGPPRP, the “shrunken log2 fold change” value was -0.119.
In the case of RRIRDRPPRLPRPRPRPMQSPRP it was 3.94; in that of RRIRPRPPRLPRPRPRPYHRPRP, -0.00884.
In the case of RRIRMRPPRLPRPRPRPHFPPRP it was -0.106.
In the case of RRIRLRPPRLPRPRPRPAYLPRP it was -0.304; in that of RRIRFRPPRLPRPRPRPVPSPRP, -0.162.
In the case of RRIRARPPRLPRPRPRPYENPRP, the “shrunken log2 fold change” value was -0.0975.
Consider RRIRWRPPRLPRPRPRPGRSPRP, for which the “shrunken log2 fold change” value worked out at 0.0808.
Consider RRIRTRPPRLPRPRPRPQTHPRP, for which the “shrunken log2 fold change” value was -0.322.
Turning to RRIRIRPPRLPRPRPRPKHIPRP, the “shrunken log2 fold change” value is -0.765.
Regarding RRIRQRPPRLPRPRPRPDQTPRP, the “shrunken log2 fold change” value was -0.0116.
In the case of RRIRLRPPRLPRPRPRPAMTPRP, the “shrunken log2 fold change” value is -0.113.
For RRIRIRPPRLPRPRPRPRDVPRP the value was 0.000408.
For RRIRERPPRLPRPRPRPHHQPRP the value was -0.318; for RRIRRRPPRLPRPRPRPDLYPRP, 0.0296.
In the case of RRIRVRPPRLPRPRPRPKQMPRP it was 0.114; in that of RRIRFRPPRLPRPRPRPHNKPRP, 0.0525.
Regarding RRIRCRPPRLPRPRPRPNTYPRP, the “shrunken log2 fold change” value is -0.774.
With RRIRERPPRLPRPRPRPWDSPRP, the “shrunken log2 fold change” value was found to be 0.0192.
As for RRIRLRPPRLPRPRPRPAMNPRP, the “shrunken log2 fold change” value was -0.397.
For RRIRWRPPRLPRPRPRPPRLPRP the value was 0.526.
For RRIRCRPPRLPRPRPRPVSCPRP the value was 0.193.
For RRIRDRPPRLPRPRPRPYQKPRP the value was 0.0212; for RRIRPRPPRLPRPRPRPRKGPRP, 0.322.
For the sequence RRIRGRPPRLPRPRPRPGYGPRP, the “shrunken log2 fold change” value is -0.0363.
For RRIRKRPPRLPRPRPRPHTPPRP the value was 0.0819.
For the sequence RRIRSRPPRLPRPRPRPFIQPRP, the “shrunken log2 fold change” value is -0.0991.
For RRIRRRPPRLPRPRPRPSALPRP the value was 0.392; for RRIRIRPPRLPRPRPRPGDAPRP, 0.0793.
As for RRIRERPPRLPRPRPRPSCIPRP, the “shrunken log2 fold change” value is -0.455.
In the case of RRIRHRPPRLPRPRPRPDWWPRP it was 0.0937; in that of RRIRCRPPRLPRPRPRPDKDPRP, -0.0474.
